Measurements published in US9395368B2, “Methods, agents and peptides for inducing an immune response to matrix metalloproteinase-2 expressing tumors” (New York University, priority 2010, dated 2016).

Key:
[1] = system: Cord blood-derived CD4+/CD25- cells; test: Priming of naive cord blood CD4+ T cells with autologous CD4- cells loaded with different sources of MMP-2; assay type: cell-based, human
Procedure: Cord blood-derived CD4^+/CD25^− cells from 11 donors were stimulated with irradiated autologous CD4^− cells loaded either with active MMP-2, heat-inactivated (HI) MMP-2 or with MMP-2 pre-incubated with a specific inhibitor (+I). After 15 days, CD4^+ T cells were stimulated with the MMP-2 peptide pool (2 μM) for 6 h before intracellular staining of cytokines. (A) Density plots representing cytokine production by CD4^+ T cells are shown for the representative donor CB35 primed to MMP-2 either in its active form or after heat-inactivation. Numbers indicate percentages of cytokine-producing cells upon MMP-2 peptide stimulation. […] MMP-2 enzymatic activity was controlled (FIG. 13C-D). For each cytokine, 3 paired t-tests were used to compare active MMP-2 to heat inactivated MMP-2, to MMP-2+I, and to MMP-2 peptides. P values≦0.0167 (*) were considered statistically significant using a Bonferroni correction for 3 comparisons.
T Cell culture, stimulation and priming. Peripheral blood mononuclear cells (PBMCs) were purified from healthy donor-(HD) or cord blood donor-(CB) derived buffy coats (New York Blood Center) by Ficoll-Paque Plus (GE Healthcare) centrifugation. CD4^+/CD25^− cells were enriched (>90%) by magnetic cell sorting (Miltenyi Biotec) and primed/stimulated for 12-15 days either with irradiated (35Gy) autologous CD4^− cells or with autologous mature DCs in IMDM (GIBCO) supplemented with 1 mM HEPES (Life Technologies), 2 mM L-glutamine (Sigma), streptomycin (100 UI/mL)/penicillin (100 μg/mL) (Sigma) and 5% heat inactivated pooled human serum (PHS; Valley Biomedical) in the presence of rhIL-2 (10 UI/mL) and IL7 (5 ng/mL) (R&D Systems). Antigen presenting cells (CD4^− cells or DCs) were loaded either with peptides (2 μM) or with the MMP-2 protein (10 μg/mL) for 2 and 5 h, respectively. DCs were matured using the TLR3 agonist poly(I:C) at 5 μg/mL/10^6 DCs (Amersham). To generate T cell clones, we originally relied on our published methodology (Godefroy et al., 2006; Godefroy et al., 2007; the entire contents of each of which is incorporated herein by reference), involving enrichment of IFNγ-secreting cells upon short-term culture and peptide stimulation to generate MMP-2 responsive clones. Briefly, CD4^+ T cells were stimulated by CD4^− cells irradiated and pulsed with peptides for 12 days in the presence of rhIL-2 and rhIL-7. CD4^+ T cells were then restimulated with peptides for 3 hours before capturing IFNγ-secreting specific cells using a bispecific antibody coating T cells and capturing produced IFNγ. Positive cells were purified magnetically before being cloned. Although MMP-2-specific cells could be isolated, it was realized that IFNγ secretion was marginal compared to their secretion of IL-4 and TNFα. IFNγ-secreting cells in response to MMP-2 peptide pool were enriched by cytokine-guided magnetic cell sorting (Miltenyi Biotec) as described above and cloned the following day by limiting dilution in the presence of irradiated allogeneic PBMCs, 1 μg/mL phytohemagglutinin-L (Sigma) and 150 UI/mL rhIL-2. Tumor infiltrating lymphocytes (TILs) were provided by Pr. F. Jotereau and B. Dréno. They were obtained from tumor-invaded lymph nodes of melanoma patients (stage Mb) and expanded ex vivo. These patients received autologous TILs and IL-2 infusions in a clinical trial (Labarriere et al., 2002). This protocol was approved by the Institutional Ethics Committee and registered with regulatory state authority in France (Nantes).
Intracellular staining T-bet and GATA-3 expression was measured on resting T cells. Cells were fixed (4% paraformaldehyde for 10 min at RT), permeabilized with 0.1% saponin, and stained for intracellular transcription factors. Cytokine production by T cells was also assessed by intracellular staining T cells were stimulated with 2 μM overlapping peptides. After 1 h, 10 μg/mL brefeldin A was added to the cells. […]

[2] = system: CD40, CD80, CD83, CD86, HLA-DR and CCR7 on DCs; test: Expression of maturation markers by DCs; assay type: cell-based, human
Procedure: Antibodies. Allophycocyanin-conjugated antibody to CCR-7 (150503) was purchased from R&D Systems. Unconjugated (10 μg/mL for blocking experiments) or phycoerythrin-conjugated antibody to OX40L (11C3.1) was from Biolegend. Blocking antibody to IL-4 (8F12; 10 μg/mL) was from Acris. Antibodies to human Vβ chains covering 70% of the repertoire (10Test Beta Mark; Beckman Coulter) were used according to the manufacturer's instructions. Fluorescein isothiocyanate-conjugated antibody to IL-12p35/IL-12p70 (B-T21) and IFNAR1 (EP899Y) were from Abcam. Phycoerythrine-conjugated antibodies to IL-12p40/IL-12p70 (C8.6), IL-10 (B-T10), CD203c (FR3-16A11) were from Miltenyi Biotec. Blocking antibody to HLA-DQ (SPVL3; 20 μg/mL) was from NeoMarkers. […]
Dendritic cell preparation and activation. […] Immature DCs were harvested on day 5 and matured using poly(I:C) at 5 μg/mL/10^6 DCs (Amersham) Secretion of IL-12p70, TNFα, IL-1β, IL-6, IL-8 and IL-10 was assessed on both immature and mature DCs using the Human Inflammatory Cytokine Cytometric Bead Array (BD Pharmingen).
We next evaluated whether DCs could be involved in the polarization of MMP-2-specific CD4^+ T cells.

B1: active MMP-2: Purified human MMP-2 (mixture of the proenzyme (50%) and the active form (50%)) purchased from Biomol (protein, listed as Homo sapiens)
chain: MEALMARGALTGPLRALCLLGCLLSHAAAAPSPIIKFPGDVAPKTDKELAVQYLNTFYGCPKESCNLFVLKDTLKKMQKFFGLPQTGDLDQNTIETMRKPRCGNPDVANYNFFPRKPKWDKNQITYRIIGYTPDLDPETVDDAFARAFQVWSDVTPLRFSRIHDGEADIMINFGRWEHGDGYPFDGKDGLLAHAFAPGTGVGGDSHFDDDELWTLGEGQVVRVKYGNADGEYCKFPFLFNGKEYNSCTDTGRSDGFLWCSTTYNFEKDGKYGFCPHEALFTMGGNAEGQPCKFPFRFQGTSYDSCTTEGRTDGYRWCGTTEDYDRDKKYGFCPETAMSTVGGNSEGAPCVFPFTFLGNKYESCTSAGRSDGKMWCATTANYDDDRKWGFCPDQGYSLFLVAAHEFGHAMGLEHSQDPGALMAPIYTYTKNFRLSQDDIKGIQELYGASPDIDLGTGPTPTLGPVTPEICKQDIVFDGIAQIRGEIFFFKDRFIWRTVTPRDKPMGPLLVATFWPELPEKIDAVYEAPQEEKAVFFAGNEYWIYSASTLERGYPKPLTSLGLPPDVQRVDAAFNWSKNKKTYIFAGDKFWRYNEVKKKMDPGFPKLIADAWNAIPDNLDAVVDLQGGGHSYFFKGAYYLKLENQSLKSVKFGSIKSDWLGC
percentage of MMP-2-specific CD4+ T cells secreting IL-4, mean ([1]; 11 cord blood donors, 15 days after priming, after background subtraction): 2.38% | IFNγ and IL-2 production compared to inactive MMP-2 or peptides ([1]; primed cells, 15 days): less | expression levels of maturation markers CD40, CD80, CD83, CD86, HLA-DR and CCR7 [2]: not significantly affected
